Source: publication PMC2792576

Target: human cyclic nucleotide-gated channel β1-subunit, wild type (human) (UniProt Q14028)
Assay: HEK 293 plasma membrane recruitment assay

Sequence of human cyclic nucleotide-gated channel β1-subunit, wild type (human) (Q14028 whole entry): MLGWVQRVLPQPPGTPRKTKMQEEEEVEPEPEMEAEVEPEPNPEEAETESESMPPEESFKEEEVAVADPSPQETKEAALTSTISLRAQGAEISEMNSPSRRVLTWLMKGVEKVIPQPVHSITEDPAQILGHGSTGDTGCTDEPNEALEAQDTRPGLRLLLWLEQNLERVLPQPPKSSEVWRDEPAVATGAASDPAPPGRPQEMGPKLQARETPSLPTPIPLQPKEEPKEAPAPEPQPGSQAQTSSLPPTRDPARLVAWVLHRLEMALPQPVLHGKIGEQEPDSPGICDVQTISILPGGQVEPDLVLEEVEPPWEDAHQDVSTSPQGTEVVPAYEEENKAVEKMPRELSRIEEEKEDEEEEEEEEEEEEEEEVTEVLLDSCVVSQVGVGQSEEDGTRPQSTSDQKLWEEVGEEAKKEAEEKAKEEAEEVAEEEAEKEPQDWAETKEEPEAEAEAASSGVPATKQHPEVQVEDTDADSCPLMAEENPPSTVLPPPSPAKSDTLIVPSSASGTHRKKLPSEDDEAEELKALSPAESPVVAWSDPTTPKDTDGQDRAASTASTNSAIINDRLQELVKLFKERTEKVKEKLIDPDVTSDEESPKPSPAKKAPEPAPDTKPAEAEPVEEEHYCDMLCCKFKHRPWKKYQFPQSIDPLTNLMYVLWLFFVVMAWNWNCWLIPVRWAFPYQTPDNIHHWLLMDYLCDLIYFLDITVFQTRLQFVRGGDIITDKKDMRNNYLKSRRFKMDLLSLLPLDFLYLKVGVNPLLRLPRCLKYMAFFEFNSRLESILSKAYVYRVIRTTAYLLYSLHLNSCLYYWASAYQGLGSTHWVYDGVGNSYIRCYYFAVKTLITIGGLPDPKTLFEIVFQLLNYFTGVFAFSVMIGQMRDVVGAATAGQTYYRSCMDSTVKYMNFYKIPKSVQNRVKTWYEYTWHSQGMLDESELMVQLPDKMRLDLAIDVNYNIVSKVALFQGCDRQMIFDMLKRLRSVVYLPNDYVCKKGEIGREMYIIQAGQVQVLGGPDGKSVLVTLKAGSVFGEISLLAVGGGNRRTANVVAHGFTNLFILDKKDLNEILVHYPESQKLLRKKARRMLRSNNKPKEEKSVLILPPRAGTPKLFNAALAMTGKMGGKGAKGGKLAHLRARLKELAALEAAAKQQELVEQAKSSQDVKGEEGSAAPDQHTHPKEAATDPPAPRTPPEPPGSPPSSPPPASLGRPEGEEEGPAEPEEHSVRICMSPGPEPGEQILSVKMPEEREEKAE

In the case of “ankyrin-G fused to green fluorescent protein, O70511 1-2622”, the cells with complete recruitment is reported as 65 % of cells.
